Results published in PMC11922746, “SPO11 dimers are sufficient to catalyse DNA double-strand breaks in vitro” (Nature, 2024).
Values belong to the binder of their own block, whether it stands above or below them.

Experiments:
[1] = biological target: T1, MBP-tagged Mus musculus SPO11 (Mus musculus, UniProt Q9WTK8 1-396); assay: SEC-MALS; co-expressed and co-purified MBP–SPO11 and His–Flag TOP6BL complex (Ni-NTA, amylose, Superdex 200); Superdex 200 increase 10/300 GL; 25 mM HEPES-NaOH pH 7.5, 500 mM NaCl, 10% glycerol, 5 mM EDTA, 2 mM DTT; conditions: both partners purified
T1 construct: SPO11, Mus musculus; expected molecular mass of MBP–SPO11 87.4 kDa; active-site tyrosines Y137 and Y138; also called MBP–SPO11; mouse SPO11; source: baculovirus-infected Sf9 insect cells, purified (amylose, Superdex 200, cation exchange); for the complex co-expressed with TOP6BL and purified (Ni-NTA, amylose, Superdex 200); not shown: MBP, N-terminal, kept
T1 sequence (looked up): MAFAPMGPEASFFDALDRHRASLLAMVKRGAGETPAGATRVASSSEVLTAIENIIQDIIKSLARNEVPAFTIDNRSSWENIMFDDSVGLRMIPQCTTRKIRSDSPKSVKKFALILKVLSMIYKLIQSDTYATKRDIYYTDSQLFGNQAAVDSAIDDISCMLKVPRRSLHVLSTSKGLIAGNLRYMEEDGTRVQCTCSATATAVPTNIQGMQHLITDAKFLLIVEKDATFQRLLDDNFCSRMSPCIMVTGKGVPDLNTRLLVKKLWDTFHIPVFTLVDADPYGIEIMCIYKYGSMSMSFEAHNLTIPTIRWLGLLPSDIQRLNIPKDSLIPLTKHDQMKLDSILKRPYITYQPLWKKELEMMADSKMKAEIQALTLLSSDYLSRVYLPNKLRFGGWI

MBP-SPO11;TOP6BL = biological target: T2, MBP-SPO11;TOP6BL (Mus musculus;Mus musculus, UniProt Q9WTK8;J3QMY9 1-396;1-579, |); assay: EMSA; 5 mM EDTA, 0.1 nM DNA; EMSA: 25 mM Tris-HCl pH 7.5, 7.5% glycerol, 50 mM NaCl, 2 mM DTT, 5 mM EDTA, 1 mg/ml BSA, 37 C, 30 min; 0.1 nM labelled hairpin or 100 ng plasmid in 20 µl; conditions: protein: recombinant;recombinant; tags: MBP;His-Flag; copies: 1;1; label: 5' 32P; hairpin, 2-nt 5' overhang
T2 sequence 1: T1 sequence (looked up)
T2 sequence 2: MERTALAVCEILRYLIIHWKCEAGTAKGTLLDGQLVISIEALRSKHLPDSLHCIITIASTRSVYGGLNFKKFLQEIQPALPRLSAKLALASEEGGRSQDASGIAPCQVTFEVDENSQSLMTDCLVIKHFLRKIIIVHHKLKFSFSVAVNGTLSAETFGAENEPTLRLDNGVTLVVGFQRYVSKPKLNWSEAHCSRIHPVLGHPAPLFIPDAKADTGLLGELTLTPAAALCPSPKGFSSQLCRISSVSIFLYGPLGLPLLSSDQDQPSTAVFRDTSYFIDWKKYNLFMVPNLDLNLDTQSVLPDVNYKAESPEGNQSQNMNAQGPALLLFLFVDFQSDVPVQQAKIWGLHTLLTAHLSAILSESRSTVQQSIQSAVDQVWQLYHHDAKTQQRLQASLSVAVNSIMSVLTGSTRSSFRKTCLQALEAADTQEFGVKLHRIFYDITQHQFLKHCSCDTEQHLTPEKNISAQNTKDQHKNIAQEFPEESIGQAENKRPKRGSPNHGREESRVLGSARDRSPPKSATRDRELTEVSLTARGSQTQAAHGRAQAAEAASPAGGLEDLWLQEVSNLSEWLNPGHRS

stoichiometry N [1]: 1
B1: His–Flag-tagged Mus musculus TOP6BL (natural protein, UniProt J3QMY9 1-579, looked up)
chain: T2 sequence 2
notes: TOP6BL (topo VIB-like subunit), Mus musculus; also called His–mTOP6BL–Flag; mTOP6BL; not shown: His, N-terminal, kept; Flag, C-terminal, kept

Binder: TAGCAATGTAATCGTCTATGACGTTAACGTCATAGACGATTACATTGC (structured_DNA) [cb957 hairpin, 25 bp, 2-nt 5' overhang]
binding result (MBP-SPO11;TOP6BL): binds
